The record followed here is patent publication US12018066 (TRIAD NATIONAL SECURITY, dated 2024).

Test [1] has as its target T1, SARS-CoV spike protein receptor binding domain (RBD1) (SARS-CoV, UniProt P59594 306-527). The test is described as follows: ELISA, crude rabbit minibody.
The target in test [2] is T1, SARS-CoV spike protein receptor binding …. The test is described as follows: ELISA, crude human minibody. (In an ELISA, binding on a coated surface is turned into a signal by an enzyme label.)

B1: D04 rabbit minibody (scFv-rabbit Fc) (Fc fusion)
scFv-Fc: SYVLTQPPSVSVAPGKTARITCGGNNIGWKSVHWYQQKPGQAPVLVVYNDNDRPSGVPERFSGSNSGNTATLTISRVVAGDEADYYCQVWDSSSDHVLFGGGTKLTVLSGGSTITSYNVYYTKLSSSGTQVQLVQSGAEVKKPGSSVKVSCKASGGTFSSYAISWVRQAPGQGLEWMGGIIPIFGTANYAQKFQGRVTITADESTSTAYMELSSLRSEDTAVYYCARASGRWLQFWHYYGMDVWGQGTTVTVS
Turning to B1, in test [1], the binding result is on record as “no binding”.

B2: H05 human minibody (scFv-human Fc) (Fc fusion)
scFv-Fc: SYVLTQPPSVSVAPGQTARITCGANNIGRISVHWYQQKPGQAPVLVVYDDSDRPSGIPERFSGSNFGNTATLTISRVEAGDEADYYCQVWDSYSDHVIFGGGTKLTVLSGGSTITSYNVYYTKLSSSGTQVQLVQSGAEVKKPGSSVKVSCKASGGTFSSYAISWVRQAPGQGLEWMGGIIPIFGTANYAQKFQGRVTITADESTSTAYMELSSLRSEDTAVYYCARSIFGVVIISHADGYYYGMDVWGQGTTVTVSS
As for B2, the binding result in test [2] was “no binding”.

B3: H03 human minibody (scFv-human Fc) (Fc fusion)
scFv-Fc: SYELTQPPSVSVAPGQTARITCGGNNIGSKSVHWYQQKPGQAPVLVIYYDSDRPSGIPERFSGSNSGNTATLTISRVEAGDEADYYCQVWDSSSALYVFGTRTKVTVLSGGSTITSYNVYYTKLSSSGTQVQLVESGGGLVQPGRSLRLSCAASGFTFDDYAMHWVRQAPGKGLEWVSGISWNSGSIGYADSVKGRFTISRDNAKNSLYLQVNSLRAEDTAVYYCARELIVGTTSPQTDAFDIWGQGTMVTVSS
B3: the binding result in test [2] was “no binding”.

B4: B10 rabbit minibody (scFv-rabbit Fc) (Fc fusion)
scFv-Fc: QSVVTQPPSVSGAPGQRVTISCTGSSSNIGSRTVNWYQQLPGTAPKLLIYANNQRPSGVPDRFSGSKSGTSASLAISGLQSEDEADYYCAAWDDSLNGYVFGTGTKLTVLSGGSTITSYNVYYTKLSSSGTQVQLQQSGPGLVKPSQTLSLTCAISGDSVSSNSATWNWIRQSPSRGLEWLGRTYYGSKWHSDYAVSVKSRITINPDTSKNQISLHLNPVTPEDTAVYYCARGRSYAFDIWDQGTMVTVSS
Consider B4, for which the binding result in test [1] is recorded as “no binding”.

B5: E08 rabbit minibody (scFv-rabbit Fc) (Fc fusion)
scFv-Fc: SYVLTQPPSVSVAPGKTARITCGGNNIGWKSVHWYQQKPGQAPVLVVYDDSDRPSGIPERFSGSNSGNTATLTISRVEAGDEADYYCQVWDSSSDLVVFGGGTKLTVLSGGSTITSYNVYYTKLSSSGTQVQLVQSGAEVKKPGSSVKVSCKASGGTFSSYAISWVRQAPGQGLEWMGGIIPIFGTANYAQKFQGRVTITADESTSTAYMELSSLRSEDTAVYYCARASGRWLQFWHYYGMDVWGQGTTVTVSS
With B5, in test [1], the binding result is recorded as “binds”.

B6: H02 human minibody (scFv-human Fc) (Fc fusion)
scFv-Fc: QSVVTQPPSVSAAPGQKVTISCSGSSSNIGNNYVSWYQQLPGTAPKLLIYRDTQRPSGVPDRFSGSKSGTSASLAISGLRSEDEADYYCATWDKSLSGPVFGGGTKVTVLSGGSTITSYNVYYTKLSSSGTQVQLQQSGPGLVKPSQTLSLTCAISGDSVSSNSAAWNWIRQSPSRGLEWLGRTYYRSKWYNDYAVSVKSRIIINPDTSKNQFSLQLNSVTPEDTAVYYCARQDNNPYYGLDVWGQGTTVTVSS
B6: the binding result in test [2] is reported as “no binding”.

B7: B04 rabbit minibody (scFv-rabbit Fc) (Fc fusion)
scFv-Fc: SYVLTQPPSVSVAPGKTARITCGGNNIGIRSVHWYQQKPGQAPVLVIYYDSDRPSGIPERFSGSKSGNTATLTISRVEAGDEADYYCQVWDSSSDHPVFGGGTKLTVLSGGSTITSYNVYYTKLSSSGTQVQLVESGAEVKKPGASVKVSCKASGYTFTRYYMHWVRQAPGQGLEWMGIINPSGGTTSYAQKFQGRVTMTRDTSTSTVYMELSSLRSEDTAVYYCARSFGELTSFDYWGQGTLVTVSS
On to B7, for which, in test [1], the binding result is reported as “no binding”.

B8: H01 rabbit minibody (scFv-rabbit Fc) (Fc fusion)
scFv-Fc: QPGLTQPPSVSLAPGQTARITCGGNNIGSKSVHWYQQKPGQAPVLVVYDDSDRPSGIPERFSGSNAGNTATLTISRVEAGDEADYYCQVWDSRSDQYVFGTRTKLTVLSGGSTITSYNVYYTKLSSSGAQVTLKESGPVLVKPTETLTLTCTVSGFSLSNARMGVSWIRQPPGKALEWLAHIFSNGEKSYSTSLKSRLTISKDTSKSQVVLTMTNMDPVDTATYYCARTLDYYDSSGYLVGGAFDIWGQGTMVTVSS
Take B8: the binding result in test [1] was “no binding”.

B9: D07 rabbit minibody (scFv-rabbit Fc) (Fc fusion)
scFv-Fc: SYELTQPPSVSVAPGETARMTCGGNNIGTKGVHWYQQKPGQAPVLVVYDDSDRPSGIPERFSGSNAGNTATLTISRVEAGDEADYYCQVWDSRSDQYVFGTRTKLTVLSGGSTITSYNVYYTKLSSSGAQVTLKESGPVLVKPTETLTLTCTVSGFSLSNARMGVSWIRQPPGKALEWLAHIFSNGEKSYSTSLKSRLTISKDTSKSQVVLTMTNMDPVDTATYYCARTLDYYDSSGYLVGGAFDIWGQGTMVTVSS
Take B9: the binding result in test [1] is on record as “no binding”.

B10: D11 human minibody (scFv-human Fc) (Fc fusion)
scFv-Fc: SYELTQPPSVSVAPGQTARITCGGNNIGSKSVHWYQQKPGQAPVLVVYDDSDRPSGIPERFSGSNSGNTATLTISGTQAMDEADYYCQAWDSSTAYVFGSGTKLTVLSGGSTITSYNVYYTKLSSSGTQVQLEESGGGLVQPGGSLRLSCAASGFTFSNYAMSWVRQAPGKGLEWVSAISGSGGATFHADSVKGRFTISRDNSKNTLYLQMNSLRAEDTAVYYCARRVGYDSSGYYWSDAFDIWGQGTMVTVSS
Regarding B10, the binding result in test [2] is “no binding”.

B11: G07 human minibody (scFv-human Fc) (Fc fusion)
scFv-Fc: QSVLIQPPSASGTPGQRVTISCSGSNSNFGSNSVSWYQQRPGTAPKLLIEGNNQRPSGVPERFSGSKSGTSASLAISGLQSEDEAEYSCASWDDSLNAFVFGPGTKLTVLSGGSAITSYNVYYTKLSSSGTQVQLVQSGAEVKKPGESLKISCKGSGYSFTSYWIGWVRQMPGKGLEWMGIIYPGDSDIRYSPSFQGQVTISADKSFSSAYLQWSSLKASDTAMYYCARLGATGAFDIWGQGTTVTVSS
Consider B11, for which the binding result in test [2] is “no binding”.

B12: D10 rabbit minibody (scFv-rabbit Fc) (Fc fusion)
scFv-Fc: QSVVTQPPSASGSPGQTVTISCSGNSANIGGNPVNWYQQLPGTAPKLLIYSNNQRPSGVPDRFSGSKSGISASLAISGLQSEDEADYYCAAWDDSLNGVIFGGGTKLTVLSGGSTITSYNVYYTKLSSSGTQVQLVQSGAEVKKPGESLKISCKGSGYSFTSYWIGWVRQMPGKGLEWMGIIYPGDSDTRYSPSFQGQVTISADKSISTAYLQWSSLKASDTAMYYCARRHSGSYSGAFDIWGQGTMVTVSS
With B12, in test [1], the binding result was “no binding”.

B13: R26 human minibody (scFv-human Fc) (Fc fusion)
scFv-Fc: SYELTQPPSVSVAPGQTATITCGGKNIESKSVHWYQQKPGQAPVLVVSDDTDRASGIPERFSGSNSGGAATLTISRVEAGDEADYYCQVWDSPSDHYVFGPGTKLTVLSGGSTITSYNVYYTKLSSSGTQVQLVESGGGVVQPGRSLRLSCAASGFTFSSYAMHWVRQAPGKGLEWVAVISYDGSNKYYADSVKGRFTISRDKAKNTLYLQMNSLRGEDTAVYYCARELSYYDSSGYLRGDWYFDLWGRGTLVTVSS
For B13, in test [2], the binding result is on record as “no binding”.

B14: E01 human minibody (scFv-human Fc) (Fc fusion)
chain: SYELTQPPSVSVAPGETARITCGGDNIGRRHVHWYQQKPGQAPVLVIYDDSDRPSGIPDRFSGSNSGNTATLTIGRVEAGDEADYYCQVWGSSNDPHVFGTGTKLTVLSGGSTITSNNVYYTKLSSSGTQVQLQQWGAGLLKPSETLSLKCAVYGGSFSGYYWGWIRQSTGKGLEWIGEINRSGSTNYNPSLKSRVTISVDTSKNQFSLKLSSVTAADTAVYYCARGGARYYYGSGSYRSTPRPYYFDYWGQGTLVTVSS
In the case of B14, in test [2], the binding result is recorded as “no binding”.
